B1: OR4K15 (parent)
chain: GUUAACGGUCAUAGGCCAUGGAAACUAGGAGCACCAUUUCGCUGCCAGUGAAGAAAUGAACAAAGAAAAUCUGGGCCAGGCAGGCAUCAAAAGAAAUAGUCUUGCGCUCAACCAGAAAGUCUGUAAUCAUUUUAAGGGUA

Variants of: B1
Test: self-cleavage, relative activity (ratio to wild type); higher = more cleavage; in vitro, sequencing; the parent is a self-cleaving ribozyme

Compared with GUUAACGGUCAUAGGCCAUGGAAACUAGGAGCACCAUUUCGCUGCCAGUGAAGAAAUGAACAAAGAAAAUCUGGGCCUGGCAGGCAUCAAAAGAAAUAGACUUGCGCUCAACCAGAAAGUCUGUAAUCAUUUUAAGGGUA [A78U U100A], GUUAACGGUCAUAGGCCAUGGAAACUAGGAGCACCAUUUCGCUGCCAGUGAAGAAAUGAACAAAGAAAAUCUGGGCCUGGCUGGCAUCAAAAGAAAUAGUCUUGCGCUCAACCAGAAAGUCUGUAAUCAUUUUAAGGGUA [A78U A82U] is higher in self-cleavage: 0.07 for the first, 0.15 for the second.

Compared with GUUAACGGUCAUAGGCCAUGGAAACUAGGAGCACCAUUUCGCUGCCAGUGAAGAAAUGAACAAAGAAAAUCUGGGCCUGGCGGGCAUCAAAAGAAAUAGUCUUGCGCUCAACCAGAAAGUCUGUAAUCAUUUUAAGGGUA [A78U A82G], GUUAACGGUCAUAGGCCAUGGAAACUAGGAGCACCAUUUCGCUGCCAGUGAAGAAAUGAACAAAGAAAAUCUGGGCCUGGCAGGCAUCAAAAGAAAUAGUCUUGCGCUCAACCAGAAAGUCUGUAAUCAUUUUAAGGGAA [A78U U139A] is higher in self-cleavage: 0.08 for the first, 0.5 for the second.

Going from GUUAACGGUCAUAGGCCAUGGAAACUAGGAGCACCAUUUCGCUGCCAGUGAAGAAAUGAACAAAGAAAAUCUGGGCCUGGCAGGCAUCAAAAGAAAUAGUCUUGCGCUCAACCAGAAAGUCUGUAAUCAUUUUAAGGGCA [A78U U139C] to GUUAACGGUCAUAGGCCAUGGAAACUAGGAGCACCAUUUCGCUGCCAGUGAAGAAAUGAACAAAGAAAAUCUGGGCCUGGCAGCCAUCAAAAGAAAUAGUCUUGCGCUCAACCAGAAAGUCUGUAAUCAUUUUAAGGGUA [A78U G84C], the self-cleavage falls from 0.28 to 0.11.

Going from GUUAACGGUCAUAGGCCAUGGAAACUAGGAGCACCAUUUCGCUGCCAGUGAAGAAAUGAACAAAGAAAAUCUGGGCCUGGCAGGCAUCAAAAGAAAUAGUCUUGCGCUCAACCAGAAAGUCUGUAAUCAUUUAAAGGGUA [A78U U133A] to GUUAACGGUCAUAGGCCAUGGAAACUAGGAGCACCAUUUCGCUGCCAGUGAAGAAAUGAACAAAGAAAAUCUGGGCCUGGCAGGCAUCAAAAGAAAUAGUCUUGCGCUCAACCAGAAAGUCUGUAAUCAUUUUAGGGGUA [A78U A135G], the self-cleavage falls from 0.72 to 0.3.

Going from GUUAACGGUCAUAGGCCAUGGAAACUAGGAGCACCAUUUCGCUGCCAGUGAAGAAAUGAACAAAGAAAAUCUGGGCCGGGCAGGCAUCAAAAGAAAUAGUCUUGCGCUCAACCAGAAAGUCUGUAAUCAUCUUAAGGGUA [A78G U131C] to GUUAACGGUCAUAGGCCAUGGAAACUAGGAGCACCAUUUCGCUGCCAGUGAAGAAAUGAACAAAGAAAAUCUGGGCCUGGCAGGCAUCAAUAGAAAUAGUCUUGCGCUCAACCAGAAAGUCUGUAAUCAUUUUAAGGGUA [A78U A91U], the self-cleavage rises from 0.07 to 0.8.

First: GUUAACGGUCAUAGGCCAUGGAAACUAGGAGCACCAUUUCGCUGCCAGUGAAGAAAUGAACAAAGAAAAUCUGGGCCUGGCAGGCAUCAAAAGAAAUAGUCUUGCGCUCAACCAGAAAGUCUGUAGUCAUUUUAAGGGUA [A78U A126G]
Second: GUUAACGGUCAUAGGCCAUGGAAACUAGGAGCACCAUUUCGCUGCCAGUGAAGAAAUGAACAAAGAAAAUCUGGGCCGGGCAGGCAUCAAAAGAAAUAGUCUUGCGCUCAACCAGAAAGUCUGUAAUCAUUCUAAGGGUA [A78G U132C]
The self-cleavage of the first is higher: 0.17 for the first, 0.12 for the second.

First: GUUAACGGUCAUAGGCCAUGGAAACUAGGAGCACCAUUUCGCUGCCAGUGAAGAAAUGAACAAAGAAAAUCUGGGCCAAGCAGGCAUCAAAAGAAAUAGUCUUGCGCACAACCAGAAAGUCUGUAAUCAUUUUAAGGGUA [G79A U108A]
Second: GUUAACGGUCAUAGGCCAUGGAAACUAGGAGCACCAUUUCGCUGCCAGUGAAGAAAUGAACAAAGAAAAUCUGGGCCUGGCAGGCAUCAAAAGAAAUAGUCUUGCGCUCAACCAGAGAGUCUGUAAUCAUUUUAAGGGUA [A78U A117G]
The self-cleavage of the first is lower: 0.02 for the first, 0.36 for the second.

Compared with GUUAACGGUCAUAGGCCAUGGAAACUAGGAGCACCAUUUCGCUGCCAGUGAAGAAAUGAACAAAGAAAAUCUGGGCCUGGCAGGCAUCAAAAGAAAUAGUCUUGCGCUCAACCAGAUAGUCUGUAAUCAUUUUAAGGGUA [A78U A117U], GUUAACGGUCAUAGGCCAUGGAAACUAGGAGCACCAUUUCGCUGCCAGUGAAGAAAUGAACAAAGAAAAUCUGGGCCAAGCAGGCAUCAAAAGUAAUAGUCUUGCGCUCAACCAGAAAGUCUGUAAUCAUUUUAAGGGUA [G79A A94U] is lower in self-cleavage: 0.3 for the first, 0.15 for the second.

First: GUUAACGGUCAUAGGCCAUGGAAACUAGGAGCACCAUUUCGCUGCCAGUGAAGAAAUGAACAAAGAAAAUCUGGGCCUGGCAGGCAUCAAAAGAAAUAGUCUUGCGCUCAACCAGAAAGUCUGUAAUCAUCUUAAGGGUA [A78U U131C]
Second: GUUAACGGUCAUAGGCCAUGGAAACUAGGAGCACCAUUUCGCUGCCAGUGAAGAAAUGAACAAAGAAAAUCUGGGCCUGGCAGGCAUCAAAAGAAAUAGUCUUGCGCUCAGCCAGAAAGUCUGUAAUCAUUUUAAGGGUA [A78U A111G]
The self-cleavage of the first is higher: 0.17 for the first, 0.02 for the second.

GUUAACGGUCAUAGGCCAUGGAAACUAGGAGCACCAUUUCGCUGCCAGUGAAGAAAUGAACAAAGAAAAUCUGGGCCUGGCAGGCAUCAAAAGAAAUAGUCUUGCGCGCAACCAGAAAGUCUGUAAUCAUUUUAAGGGUA [A78U U108G] and GUUAACGGUCAUAGGCCAUGGAAACUAGGAGCACCAUUUCGCUGCCAGUGAAGAAAUGAACAAAGAAAAUCUGGGCCUGGCAGGCAUCAAAAGAAAUAGUCUUGCGCACAACCAGAAAGUCUGUAAUCAUUUUAAGGGUA [A78U U108A] are the same in self-cleavage: 0.01 for the first, 0.01 for the second.

First: GUUAACGGUCAUAGGCCAUGGAAACUAGGAGCACCAUUUCGCUGCCAGUGAAGAAAUGAACAAAGAAAAUCUGGGCCUGGCAGGCAUCAAAAGAAAUAGUCUUGCGCUCAACCAGAAAGUCUGUAAUCAUUUUGAGGGUA [A78U A134G]
Second: GUUAACGGUCAUAGGCCAUGGAAACUAGGAGCACCAUUUCGCUGCCAGUGAAGAAAUGAACAAAGAAAAUCUGGGCCUGGCAGGCAUCAAAAGAAAUAGUCUCGCGCUCAACCAGAAAGUCUGUAAUCAUUUUAAGGGUA [A78U U103C]
The self-cleavage of the first is higher: 0.31 for the first, 0.06 for the second.

Going from GUUAACGGUCAUAGGCCAUGGAAACUAGGAGCACCAUUUCGCUGCCAGUGAAGAAAUGAACAAAGAAAAUCUGGGCCUGGCAGGCACCAAAAGAAAUAGUCUUGCGCUCAACCAGAAAGUCUGUAAUCAUUUUAAGGGUA [A78U U87C] to GUUAACGGUCAUAGGCCAUGGAAACUAGGAGCACCAUUUCGCUGCCAGUGAAGAAAUGAACAAAGAAAAUCUGGGCCUGGCAGGCAUCAAAAGAAAUAGUCCUGCGCUCAACCAGAAAGUCUGUAAUCAUUUUAAGGGUA [A78U U102C], the self-cleavage rises from 0.31 to 1.21.

First: GUUAACGGUCAUAGGCCAUGGAAACUAGGAGCACCAUUUCGCUGCCAGUGAAGAAAUGAACAAAGAAAAUCUGGGCCUGGCAGGCAUCAAAAUAAAUAGUCUUGCGCUCAACCAGAAAGUCUGUAAUCAUUUUAAGGGUA [A78U G93U]
Second: GUUAACGGUCAUAGGCCAUGGAAACUAGGAGCACCAUUUCGCUGCCAGUGAAGAAAUGAACAAAGAAAAUCUGGGCCUGGCAGGCAUCAAAAGAAAUAGUCUUGCGCUCGACCAGAAAGUCUGUAAUCAUUUUAAGGGUA [A78U A110G]
The self-cleavage of the first is higher: 0.53 for the first, 0.05 for the second.

Compared with GUUAACGGUCAUAGGCCAUGGAAACUAGGAGCACCAUUUCGCUGCCAGUGAAGAAAUGAACAAAGAAAAUCUGGGCCUGGCAGGCAUCAAAAGAAAUAGUCUUGCGCUCCACCAGAAAGUCUGUAAUCAUUUUAAGGGUA [A78U A110C], GUUAACGGUCAUAGGCCAUGGAAACUAGGAGCACCAUUUCGCUGCCAGUGAAGAAAUGAACAAAGAAAAUCUGGGCCGGGCAGGCAUCAAAAGAAAUAGUCUUGCGCUCAACCAGAAAGUCUGUAAUCAUUUUAAGGGCA [A78G U139C] is higher in self-cleavage: 0.05 for the first, 0.24 for the second.

Compared with GUUAACGGUCAUAGGCCAUGGAAACUAGGAGCACCAUUUCGCUGCCAGUGAAGAAAUGAACAAAGAAAAUCUGGGCCGGGCAGGCAUCAAAAGAAAUAGUCUUGCGCUCAACCAGAAAGUCUGUAAUCAUUUUAAGGGAA [A78G U139A], GUUAACGGUCAUAGGCCAUGGAAACUAGGAGCACCAUUUCGCUGCCAGUGAAGAAAUGAACAAAGAAAAUCUGGGCCAAGCAGGCAUCAAAAGAAAUAGUCUUGCGCUCAACCAGAAAGUCUGUAAUCAUUUUAAGGGUG [G79A A140G] is lower in self-cleavage: 0.23 for the first, 0.13 for the second.

Going from GUUAACGGUCAUAGGCCAUGGAAACUAGGAGCACCAUUUCGCUGCCAGUGAAGAAAUGAACAAAGAAAAUCUGGGCCUGGCAGGCAUCAAAAGAAAUAGUCUUGCGCUCAACCAGAAAGUCUGUAAACAUUUUAAGGGUA [A78U U127A] to GUUAACGGUCAUAGGCCAUGGAAACUAGGAGCACCAUUUCGCUGCCAGUGAAGAAAUGAACAAAGAAAAUCUGGGCCUGGCAGGCAUCAAAAGAAAUGGUCUUGCGCUCAACCAGAAAGUCUGUAAUCAUUUUAAGGGUA [A78U A98G], the self-cleavage falls from 0.8 to 0.06.

Going from GUUAACGGUCAUAGGCCAUGGAAACUAGGAGCACCAUUUCGCUGCCAGUGAAGAAAUGAACAAAGAAAAUCUGGGCCAAGCAGGCAUCAAAAGAAAUAGUCUUGCGCUCUACCAGAAAGUCUGUAAUCAUUUUAAGGGUA [G79A A110U] to GUUAACGGUCAUAGGCCAUGGAAACUAGGAGCACCAUUUCGCUGCCAGUGAAGAAAUGAACAAAGAAAAUCUGGGCCUGGCAGGCAUCAAAAGAAAUAGUCUUGCGCUCAACCAGAAAGACUGUAAUCAUUUUAAGGGUA [A78U U120A], the self-cleavage falls from 0.24 to 0.18.

Compared with GUUAACGGUCAUAGGCCAUGGAAACUAGGAGCACCAUUUCGCUGCCAGUGAAGAAAUGAACAAAGAAAAUCUGGGCCUGGCAGGCAUCAAAAGAAACAGUCUUGCGCUCAACCAGAAAGUCUGUAAUCAUUUUAAGGGUA [A78U U97C], GUUAACGGUCAUAGGCCAUGGAAACUAGGAGCACCAUUUCGCUGCCAGUGAAGAAAUGAACAAAGAAAAUCUGGGCCUGGCAGGCAUCUAAAGAAAUAGUCUUGCGCUCAACCAGAAAGUCUGUAAUCAUUUUAAGGGUA [A78U A89U] is lower in self-cleavage: 0.36 for the first, 0.35 for the second.

Going from GUUAACGGUCAUAGGCCAUGGAAACUAGGAGCACCAUUUCGCUGCCAGUGAAGAAAUGAACAAAGAAAAUCUGGGCCUGGCAGGCAUCAAAAGAAAUAGUCUUGCGCUCAACCCGAAAGUCUGUAAUCAUUUUAAGGGUA [A78U A114C] to GUUAACGGUCAUAGGCCAUGGAAACUAGGAGCACCAUUUCGCUGCCAGUGAAGAAAUGAACAAAGAAAAUCUGGGCCUGGCAGGCAUCAAAAGAAAUAGUCUUGCGCUCAACCAGAAAGUCUGUAAUCACUUUAAGGGUA [A78U U130C], the self-cleavage rises from 0.05 to 0.2.

Going from GUUAACGGUCAUAGGCCAUGGAAACUAGGAGCACCAUUUCGCUGCCAGUGAAGAAAUGAACAAAGAAAAUCUGGGCCAAGCAGGCAUCAAAAGAAAUAGUCUUGCGCUCAACCAGAAAGUCUGUAAUCAUUUUAAGGGUA [G79A] to GUUAACGGUCAUAGGCCAUGGAAACUAGGAGCACCAUUUCGCUGCCAGUGAAGAAAUGAACAAAGAAAAUCUGGGCCAAGCAGGCAUCAAAAGAAAUAGUCUUGCGCUCAACCAGAAAGUCUGUAAUCCUUUUAAGGGUA [G79A A129C], the self-cleavage falls from 0.14 to 0.05.

Work on GUUAACGGUCAUAGGCCAUGGAAACUAGGAGCACCAUUUCGCUGCCAGUGAAGAAAUGAACAAAGAAAAUCUGGGCCAAGCAGGCAUCAAAAGAAAUAGUCUUGCGCUCAACCAGAAAGUCUGUAAUCGUUUUAAGGGUA [G79A A129G] yielded a self-cleavage of 0.17.
